{
  "source": "patent US20050136044A1",
  "about": "“Butyrylcholinesterase variants that alter the activity of chemotherapeutic agents” (priority 2003, published 2005)",
  "molecules": {"B1": {"name": "wild-type butyrylcholinesterase (protein, UniProt P06276 29-602, looked up)", "Cholinesterase": "EDDIIIATKNGKVRGMNLTVFGGTVTAFLGIPYAQPPLGRLRFKKPQSLTKWSDIWNATKYANSCCQNIDQSFPGFHGSEMWNPNTDLSEDCLYLNVWIPAPKPKNATVLIWIYGGGFQTGTSSLHVYDGKFLARVERVIVVSMNYRVGALGFLALPGNPEAPGNMGLFDQQLALQWVQKNIAAFGGNPKSVTLFGESAGAASVSLHLLSPGSHSLFTRAILQSGSFNAPWAVTSLYEARNRTLNLAKLTGCSRENETEIIKCLRNKDPQEILLNEAFVVPYGTPLSVNFGPTVDGDFLTDMPDILLELGQFKKTQILVGVNKDEGTAFLVYGAPGFSKDNNSIITRKEFQEGLKIFFPGVSEFGKESILFHYTDWVDDQRPENYREALGDVVGDYNFICPALEFTKKFSEWGNNAFFYYFEHRSSKLPWPEWMGVMHGYEIEFVFGLPLERRDNYTKAEEILSRSIVKRWANFAKYGNPNETQNNSTSWPVFKSTEQKYLTLNTESTRIMTKLRAQQCRFWTSFFPKVLEMTGNIDEAEWEWKAGFHRWNNYMMDWKNQFNDYTSKKESCVGL"}, "B2": {"name": "6-6 variant (protein)", "chain": "B1 Cholinesterase with F227A, S287G, A328W, Y332M", "modifications": "synthetic butyrylcholinesterase variant"}, "B3": {"name": "AME133 Fab (humanized anti-CD20 with fully human germline framework regions) (Fab, V domains shown)", "VH": "EVQLVQSGAEVKKPGESLKISCKGSGRTFTSYNMHWVRQMPGKGLEWMGAIYPLTGDTSYNQKSKLQVTISADKSISTAYLQWSSLKASDTAMYYCARSTYVGGDWQFDVWGKGTTVTVSS", "VL": "EIVLTQSPGTLSLSPGERATLSCRASSSVPYIHWYQQKPGQAPRLLIYATSALASGIPDRFSGSGSGTDFTLTISRLEPEDFAVYYCQQWLSNPPTFGQGTKLEIKR", "notes": "also called monovalent Fab"}},
  "key": {"[1]": {"conditions": "cited from earlier work"}, "[2]": {"conditions": "in vitro; Pavillard et al. 2002; cited from earlier work"}, "[3]": {"assay": "CPT-11 conversion to SN-38, fluorescent HPLC detection, conditioned media of transiently expressed BChE variants", "format": "biochemical", "conditions": "for CPT-11 conversion to SN-38 (SN-38 formation by HPLC), in words: 20 mM CPT-11, 72 hours, 37° C., versus mock / wild-type", "procedure": "Butyrylcholinesterase variants were assayed for CPT-11 conversion activity using fluorescent High Performance Liquid Chromotography (HPLC) detection of SN-38 formation as described in Dodds and Rivory, Mol. Pharmacol. 56: 1346-1353 (1999), which is incorporated herein by reference. Briefly, conditioned media from transiently expressed BChE variants were exposed to 20 mM CPT-11 for 72 hours at 37° C. and analyzed by HPLC for SN-38 formation (peak at about 4 minutes column retention time)."}, "[4]": {"system": "SW48 colon carcinoma cells", "assay": "MTT cytotoxicity assay of CPT-11 activated by BChE variants", "conditions": "CPT-11 at 4 mM incubated 72 hours with enzyme, cells exposed at 0.5 mM for 72 hours, versus mock", "procedure": "Clinically relevant concentrations of CPT-11 (0.5-10 mM) were exposed to BChE variants for 24-72 hours at 37° C. Briefly, CPT-11 at 4 mM was incubated for 72 hours with expressed wild-type BChE, the 6-6 variant, or F227A/L286Q variant. SW48 colon carcinoma cells were exposed to the activated CPT-11 at a concentration of 0.5 mM for 72 hours and cell viability measured by the MTT method. The MTT (3-(4,5-dimethylthiazolyl-2)-2,5-diphenyltetrazolium bromide) assay is commercially available and can be used to measure cell viability based on the ability of a cell to reduce a redox sensitive dye. Note the 6-6 variant is a quadruple mutant referenced as A328W/Y332M/S287G/F227A (SEQ ID NO: 16) in the nomenclature used throughout to describe variants. The 6-6 variant contains the following codons at variant positions: GCG encodes alanine at amino acid position 227, GGT encodes glycine at amino acid position 287, ATG encodes methionine at amino acid position 332, and TGG encodes tryptophane at amino acid position 328."}, "[5]": {"assay": "o-nitrophenyl acetate (o-NPA) hydrolysis assay of antibody-captured butyrylcholinesterase variants (carboxylesterase activity)", "format": "biochemical", "conditions": "antibody capture/normalization, absorbance 405 nm", "quoted_text": "A modification of this assay that measures o-NPA activity of butyrylcholinesterase variants normalized by capturing with an anti-butyrylcholinesterase antibody was performed as described below.\nProtocol to Determine Carboxylesterase activity of Captured Butyrylcholinesterase by o-Nitrophenyl acetate: • 1) Coat 96-well Immulon 2 plates with rabbit anti-human butyrylcholinesterase (Dako #A0032) at 10 mg/ml in PBS (100 ml/well) overnight at 4° C. • 2) Remove coating solution and block plate with 3% BSA in PBS (250 ml/well) for 2 hours at room temperature. • 3) Add 200 ml butyrylcholinesterase variant conditioned media and incubate at RT for 2 hrs. • 4) Wash plate 3 times with 250 ml/well PBS. • 5) Add 85 ml/well 0.1 M potassium phosphate pH 7.0 • 6) Add 13.6 mg o-NPA to 100 ml acetonitrile, mix to dissolve. Add 100 ml of this stock to 6.3 mls water and mix well. • 7) Wash plate 3 times with PBS. • 8) Add 15 ml of diluted o-NPA substrate. • 9) Read absorbance at 405 nm.\nConditioned media from butyrylcholinesterase variants that were transiently expressed in 293T cells was tested using the above described anti-butyrylcholinesterase antibody capture/normalization assay for carboxylesterase activity. […] The first variant shown in FIG. 1 is F227A (see left-most bar). The level of activity of the other variants can be compared to the level of activity of F227A. […]"}, "[6]": {"assay": "BChE-mediated CPT-11 hydrolysis, SN38 quantitated by reverse-phase HPLC with fluorescence detection; Km by Hofstee plot", "format": "biochemical", "conditions": "37° C., 24 hours, CPT-11 1-80 μM, Hofstee plot", "procedure": "BChE plasmid variants were expressed transiently in the human embryonic kidney cell line 293T and assayed for activity at 72 hours post-transfection. Primary screening of variants was performed by indirect measurement of enzymatic activation of CPT-11 (FIG. 2) in SW48 colon carcinoma cell cytotoxicity assays. […] Functional hits identified in these assays were characterized by sequence analysis of the corresponding DNA from the original preps. […] Enzyme was incubated at 37° C. for 24 hours with CPT-11 over a range of concentrations from 1-80 μM. […] Velocity (v) is in light absorbance units at 540 nm. Substrate concentration [s] is μM CPT-11.\nSamples were acidified and resolved by reverse-phase HPLC on a NovaPak C18 column to separate SN38 from unactivated CPT-11. SN38 peak area under the curve (AUC) was used to compare CPT-11 activation by the wild-type enzyme to the optimized BChE.4-1 variant."}, "CD20": {"target": "T1, CD20 (human, UniProt P11836 1-297)", "T1 construct": "whole, on cells; also called CD20 cell surface antigen; CD20 on SKW 6.4 human B lymphoma cells", "T1 sequence (looked up)": "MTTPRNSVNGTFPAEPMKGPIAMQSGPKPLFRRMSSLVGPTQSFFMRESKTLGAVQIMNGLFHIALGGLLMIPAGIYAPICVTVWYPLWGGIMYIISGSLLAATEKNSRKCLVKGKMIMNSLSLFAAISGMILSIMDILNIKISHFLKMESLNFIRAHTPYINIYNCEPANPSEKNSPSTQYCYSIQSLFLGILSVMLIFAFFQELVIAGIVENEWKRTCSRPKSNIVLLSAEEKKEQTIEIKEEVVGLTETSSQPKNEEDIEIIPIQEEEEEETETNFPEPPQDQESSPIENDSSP", "assay": "method not stated"}},
  "note": "Where a chain is given by its changes, count along the chain named.",
  "data": [
    {"molecule": "CCc1c2c(nc3ccc(OC(=O)N4CCC(N5CCCCC5)CC4)cc13)-c1cc3c(c(=O)n1C2)COC(=O)[C@]3(O)CC", "note": "[CPT-11, 7-ethyl-10-[4-(1-piperidino)-1-piperidine]carbonyloxycamptothecin]", "values": [
      {"measurement": "plasma concentrations of CPT-11", "setting": "[1]; patients treated with 200 mg/m2 CPT-11, for at least 24 hours, Ducreux et al. 2003", "value": "above 0.1 μM"},
      {"measurement": "plasma peak concentration versus dose", "setting": "[1]; single agent at up to 500 mg/m^2", "value": "dose-proportional"}
    ]},
    {"molecule": "CCc1c2c(nc3ccc(O)cc13)-c1cc3c(c(=O)n1C2)COC(=O)[C@]3(O)CC", "note": "[SN38, 7-ethyl-10-hydroxycamptothecin]", "values": [
      {"measurement": "cytotoxicity relative to CPT-11", "setting": "[2]", "value": "greater than 1000 fold"}
    ]},
    {"molecule": "F227A/L286Q", "values": [
      {"measurement": "Fold improvement in CPT-11 conversion", "setting": "[3]; compared to wild-type butyrylcholinesterase, conditioned media exposed to 20 mM CPT-11 for 72 hours at 37° C., SN-38 by HPLC, conservative values", "value": ">10", "unit": "fold"},
      {"measurement": "CPT-11 conversion to SN-38 (SN-38 formation by HPLC), in words", "setting": "[3]; conditioned media", "value": "increased CPT-11 conversion to SN-38"},
      {"measurement": "CPT-11 mediated cytotoxicity in SW48 colon carcinoma cells", "setting": "[4]", "value": "increased tumor cell cytotoxicity"}
    ]},
    {"molecule": "B1", "values": [
      {"measurement": "conversion of CPT-11", "setting": "[3]; HPLC assay, conditioned media", "value": "less than 1%"},
      {"measurement": "CPT-11 conversion to SN-38 (SN-38 formation by HPLC), in words", "setting": "[3]; conditioned media", "value": "did not show detectable levels of SN-38"},
      {"measurement": "CPT-11 mediated cytotoxicity in SW48 colon carcinoma cells", "setting": "[4]", "value": "significantly enhanced"},
      {"measurement": "level of carboxylesterase activity relative to F227A", "setting": "[5]", "value": "approximately 50%"},
      {"measurement": "Km", "setting": "[6]", "value": 40, "unit": "µM"}
    ]},
    {"molecule": "B2", "values": [
      {"measurement": "CPT-11 mediated cytotoxicity in SW48 colon carcinoma cells", "setting": "[4]", "value": "increased tumor cell cytotoxicity"}
    ]},
    {"molecule": "B3", "values": [
      {"measurement": "Kd", "setting": "CD20", "value": 1, "unit": "nM"}
    ]}
  ]
}
